Drawing on article PMC9331606 (2022), this text covers response for 1 variant.

The chains are these.
B1: Halo-tagged human cytomegalovirus immediate early 1 protein (hIE1) [human cytomegalovirus (HCMV)] / NanoLuciferase-tagged human promyelocytic leukemia protein (hPML) [human] (parent complex)
chain 1: MESSAKRKMDPDNPDEGPSSKVPRPETPVTKATTFLQTMLRKEVNSQLSLGDPLFPELAEESLKTFEQVTEDCNENPEKDVLAELVKQIKVRVDMVRHRIKEHMLKKYTQTEEKFTGAFNMMGGCLQNALDILDKVHEPFEEMKCIGLTMQSMYENYIVPEDKREMWMACIKELHDVSKGAANKLGGALQAKARAKKDELRRKMMYMCYRNIEFFTKNSAFPKTTNGCSQAMAALQNLPQCSPDEIMAYAQKIFKILDEERDKVLTHIDHIFMDILTTCVETMCNEYKVTSDACMMTMYGGISLLSEFCRVLCCYVLEETSVMLAKRPLITKPEVISVMKRRIEEICMKVFAQYILGADPLRVCSPSVDDLRAIAEESDEEEAIVAYTLATAGVSSSDSLVSPPESPVPATIPLSSVIVAENSDQEESEQSDEEEEEGAQEEREDTVSVKSEPVSEIEEVAPEEEEDGAEEPTASGGKSTHPMVTRSKADQ
chain 2: MEPAPARSPRPQQDPARPQEPTMPPPETPSEGRQPSPSPSPTERAPASEEEFQFLRCQQCQAEAKCPKLLPCLHTLCSGCLEASGMQCPICQAPWPLGADTPALDNVFFESLQRRLSVYRQIVDAQAVCTRCKESADFWCFECEQLLCAKCFEAHQWFLKHEARPLAELRNQSVREFLDGTRKTNNIFCSNPNHRTPTLTSIYCRGCSKPLCCSCALLDSSHSELKCDISAEIQQRQEELDAMTQALQEQDSAFGAVHAQMHAAVGQLGRARAETEELIRERVRQVVAHVRAQERELLEAVDARYQRDYEEMASRLGRLDAVLQRIRTGSALVQRMKCYASDQEVLDMHGFLRQALCRLRQEEPQSLQAAVRTDGFDEFKVRLQDLSSCITQGKDAAVSKKASPEAASTPRDPIDVDLPEEAERVKAQVQALGLAEAQPMAVVQSVPGAHPVPVYAFSIKGPSYGEDVSNTTTAQKRKCSQTQCPRKVIKMESEEGKEARLARSSPEQPRPSTSKAVSPPHLDGPPSPRSPVIGSEVFLPNSNHVASGAGEAEERVVVISSSEDSDAENSSSRELDDSSSESSDLQLEGPSTLRVLDENLADPQAEDRPLVFFDLKIDNETQKISQLAAVNRESKFRVVIQPEAFFSIYSKAVSLEVGLQHFLSFLSSMRRPILACYKLWGPGLPNFFRALEDINRLWEFQEAISGFLAALPLIRERVPGASSFKLKNLAQTYLARNMSERSAMAAVLAMRDLCRLLEVSPGPQLAQHVYPFSSLQCFASLQPLVQAAVLPRAEARLLALHNVSFMELLSAHRRDRQGGLKKYSRYLSLQTTTLPPAQPAFNLQALGTYFEGLLEGPALARAEGVSTPLAGRGLAERASQQS

In the experiment the parent is B1. The experiment can be described thus: NanoBRET; HEK293T cells transfected 24 h; 4 h incubation with Halo ligand; detection time 5 s at 618 nm and 448 nm; parent: 23; read off a plot. For orientation: BRET reads energy transfer from a luciferase to a nearby fluorophore.
chain 1 L174P: the response was ~1.2 mBU.
